Laboratory results from article doi:10.1101/634907.

T1: CLASP2 (endogenous, HeLa cell extracts) (human (endogenous in HeLa)), O75122
T1 chain: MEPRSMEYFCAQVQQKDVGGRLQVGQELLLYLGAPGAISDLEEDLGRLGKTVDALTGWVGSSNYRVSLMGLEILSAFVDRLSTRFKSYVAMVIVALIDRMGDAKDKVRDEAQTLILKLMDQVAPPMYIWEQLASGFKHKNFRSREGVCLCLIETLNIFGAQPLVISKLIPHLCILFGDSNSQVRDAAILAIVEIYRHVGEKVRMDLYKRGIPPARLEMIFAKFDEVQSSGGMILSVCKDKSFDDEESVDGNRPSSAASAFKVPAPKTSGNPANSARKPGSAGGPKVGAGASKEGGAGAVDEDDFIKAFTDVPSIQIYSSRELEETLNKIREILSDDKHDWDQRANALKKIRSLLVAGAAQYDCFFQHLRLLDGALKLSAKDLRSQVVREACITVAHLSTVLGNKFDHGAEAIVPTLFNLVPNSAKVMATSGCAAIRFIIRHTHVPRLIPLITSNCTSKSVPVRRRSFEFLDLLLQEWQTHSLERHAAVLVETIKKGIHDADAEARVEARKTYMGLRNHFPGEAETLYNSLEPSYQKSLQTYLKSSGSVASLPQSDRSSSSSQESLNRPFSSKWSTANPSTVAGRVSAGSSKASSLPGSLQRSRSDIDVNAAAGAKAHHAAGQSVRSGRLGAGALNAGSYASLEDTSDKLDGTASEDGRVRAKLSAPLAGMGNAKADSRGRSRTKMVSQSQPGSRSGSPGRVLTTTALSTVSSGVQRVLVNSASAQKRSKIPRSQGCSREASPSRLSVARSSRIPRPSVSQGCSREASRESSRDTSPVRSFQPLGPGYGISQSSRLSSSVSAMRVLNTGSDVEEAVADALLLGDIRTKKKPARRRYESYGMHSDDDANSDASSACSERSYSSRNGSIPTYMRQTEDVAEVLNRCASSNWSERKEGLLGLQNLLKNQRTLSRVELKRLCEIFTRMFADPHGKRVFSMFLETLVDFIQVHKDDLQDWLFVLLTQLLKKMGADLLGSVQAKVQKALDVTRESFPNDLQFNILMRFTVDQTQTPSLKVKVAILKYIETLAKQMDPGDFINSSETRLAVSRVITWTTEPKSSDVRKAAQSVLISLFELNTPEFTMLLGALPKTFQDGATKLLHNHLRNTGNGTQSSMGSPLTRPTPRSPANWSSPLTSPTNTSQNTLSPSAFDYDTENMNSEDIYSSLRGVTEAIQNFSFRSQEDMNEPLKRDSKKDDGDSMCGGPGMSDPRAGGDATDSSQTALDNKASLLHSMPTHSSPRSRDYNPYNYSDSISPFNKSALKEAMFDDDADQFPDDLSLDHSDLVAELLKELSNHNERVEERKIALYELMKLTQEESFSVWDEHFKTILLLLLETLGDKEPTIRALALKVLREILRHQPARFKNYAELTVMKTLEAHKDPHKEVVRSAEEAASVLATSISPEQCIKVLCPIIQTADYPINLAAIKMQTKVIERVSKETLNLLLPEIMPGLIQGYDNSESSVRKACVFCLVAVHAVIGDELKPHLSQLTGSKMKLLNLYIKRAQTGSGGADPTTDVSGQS


Legend:
[1] = biological target: recombinant human CLASP2 C-terminal fragment (CLASP2-1213-1515) (human); assay: SEC + other: density gradient centrifugation
[2] = biological target: T1, CLASP2 (endogenous, HeLa cell extracts) …; assay: SEC + other: density gradient centrifugation; details: remark: other sources report otherwise

stoichiometry N [1]	stoichiometry N [2]	Molecule
2		recombinant human CLASP2 C-terminal fragment (CLASP2-1213-1515) (domain or fragment)
	2	CLASP2 (endogenous, HeLa cell extracts), O75122-3 1-1515 (natural protein) MEPRSMEYFCAQVQQKDVGGRLQVGQELLLYLGAPGAISDLEEDLGRLGKTVDALTGWVGSSNYRVSLMGLEILSAFVDRLSTRFKSYVAMVIVALIDRMGDAKDKVRDEAQTLILKLMDQVAPPMYIWEQLASGFKHKNFRSREGVCLCLIETLNIFGAQPLVISKLIPHLCILFGDSNSQVRDAAILAIVEIYRHVGEKVRMDLYKRGIPPARLEMIFAKFDEVQSSGGMILSVCKDKSFDDEESVDGNRPSSAASAFKVPAPKTSGNPANSARKPGSAGGPKVGAGASKEGGAGAVDEDDFIKAFTDVPSIQIYSSRELEETLNKIREILSDDKHDWDQRANALKKIRSLLVAGAAQYDCFFQHLRLLDGALKLSAKDLRSQVVREACITVAHLSTVLGNKFDHGAEAIVPTLFNLVPNSAKVMATSGCAAIRFIIRHTHVPRLIPLITSNCTSKSVPVRRRSFEFLDLLLQEWQTHSLERHAAVLVETIKKGIHDADAEARVEARKTYMGLRNHFPGEAETLYNSLEPSYQKSLQTYLKSSGSVASLPQSDRSSSSSQESLNRPFSSKWSTANPSTVAGRVSAGSSKASSLPGSLQRSRSDIDVNAAAGAKAHHAAGQSVRSGRLGAGALNAGSYASLEDTSDKLDGTASEDGRVRAKLSAPLAGMGNAKADSRGRSRTKMVSQSQPGSRSGSPGRVLTTTALSTVSSGVQRVLVNSASAQKRSKIPRSQGCSREASPSRLSVARSSRIPRPSVSQGCSREASRESSRDTSPVRSFQPLGPGYGISQSSRLSSSVSAMRVLNTGSDVEEAVADALLLGDIRTKKKPARRRYESYGMHSDDDANSDASSACSERSYSSRNGSIPTYMRQTEDVAEVLNRCASSNWSERKEGLLGLQNLLKNQRTLSRVELKRLCEIFTRMFADPHGKRVFSMFLETLVDFIQVHKDDLQDWLFVLLTQLLKKMGADLLGSVQAKVQKALDVTRESFPNDLQFNILMRFTVDQTQTPSLKVKVAILKYIETLAKQMDPGDFINSSETRLAVSRVITWTTEPKSSDVRKAAQSVLISLFELNTPEFTMLLGALPKTFQDGATKLLHNHLRNTGNGTQSSMGSPLTRPTPRSPANWSSPLTSPTNTSQNTLSPSAFDYDTENMNSEDIYSSLRGVTEAIQNFSFRSQEDMNEPLKRDSKKDDGDSMCGGPGMSDPRAGGDATDSSQTALDNKASLLHSMPTHSSPRSRDYNPYNYSDSISPFNKSALKEAMFDDDADQFPDDLSLDHSDLVAELLKELSNHNERVEERKIALYELMKLTQEESFSVWDEHFKTILLLLLETLGDKEPTIRALALKVLREILRHQPARFKNYAELTVMKTLEAHKDPHKEVVRSAEEAASVLATSISPEQCIKVLCPIIQTADYPINLAAIKMQTKVIERVSKETLNLLLPEIMPGLIQGYDNSESSVRKACVFCLVAVHAVIGDELKPHLSQLTGSKMKLLNLYIKRAQTGSGGADPTTDVSGQS
